Substitutions are numbered along the chain they refer to. Names may count otherwise.
T1: recombinant human FcγRIIB expressed in CHO cells (human, UniProt P31994 43-217, limits assumed)
T1 construct: Soluble analyte injected in SPR; also called human FcgRIIB; rhFcgRIIB (CHO)
T1 sequence (looked up): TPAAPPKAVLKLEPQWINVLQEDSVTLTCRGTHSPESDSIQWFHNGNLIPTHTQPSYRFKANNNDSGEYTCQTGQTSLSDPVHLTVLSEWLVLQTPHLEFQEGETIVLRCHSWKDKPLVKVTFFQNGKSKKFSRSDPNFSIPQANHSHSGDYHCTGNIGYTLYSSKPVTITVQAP

T2: recombinant mouse FcγRIIB expressed in NS0 cells (mouse, UniProt P08101 40-207, limits assumed)
T2 construct: Bought from R&D Systems; soluble analyte injected in SPR; also called rmFcgRIIB (NSO); CD32-B
T2 sequence (looked up): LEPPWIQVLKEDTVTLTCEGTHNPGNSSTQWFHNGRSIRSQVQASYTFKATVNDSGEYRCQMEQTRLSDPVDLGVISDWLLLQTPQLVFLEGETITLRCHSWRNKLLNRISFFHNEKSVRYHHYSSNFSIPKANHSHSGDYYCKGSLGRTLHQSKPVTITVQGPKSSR

B1: 183-D4/F241A Fc (SEQ ID NO13) (other)
chain: AEPKSCDKTHTCPPCPAPELLGGPSVALFPPKPKDTLMISRTPEVTCVVVDVSHEDPEVKFNWYVDGVEVHNAKTKPREEQYNSTYRVVSVLTVLHQDWLNGEEYKCKVSNEALPAPIEKTISKTKGRPREPQVYTLPPSRDELTKNQVSLTCLVKGFYPSDIAVEWESNGQPENNYKTTPPVLDSDGSFFLYSKLTVDRSRWQQGNVFSCSVMHEALHNHYTQKSLSLSPGK
notes: Human IgG1 Fc fragment with F241A, K317E, K326E, A339T, Q342R, K414R (EU)
B2: 183-D4/F241A/L328F Fc (SEQ ID NO12) (other)
chain: B1 chain with L114F
notes: Human IgG1 Fc fragment with F241A, K317E, K326E, L328F, A339T, Q342R, K414R (EU)
B3: K317E/K326E/K414R Fc (SEQ ID NO11) (other)
chain: B1 chain with A27F, T125A, R128Q
notes: Human IgG1 Fc fragment, made in glycoengineered Pichia pastoris
B4: F243A/V264A/S267E/L328F Fc (SEQ ID NO8) (other)
chain: AEPKSCDKTHTCPPCPAPELLGGPSVFLAPPKPKDTLMISRTPEVTCVVADVEHEDPEVKFNWYVDGVEVHNAKTKPREEQYNSTYRVVSVLTVLHQDWLNGKEYKCKVSNKAFPAPIEKTISKAKGQPREPQVYTLPPSREEMTKNQVSLTCLVKGFYPSDIAVEWESNGQPENNYKTTPPVLDSDGSFFLYSKLTVDKSRWQQGNVFSCSVMHEALHNHYTQKSLSLSPG
notes: Human IgG1 Fc fragment with F243A, V264A, S267E, L328F (EU)

Legend:
[1] = target: T1, recombinant human FcγRIIB expressed in …; experiment: SPR (Biacore); capture sample on chip, rhFcgRIIB (CHO) injected; reference Herceptin
Procedure: (§1) Purified IgGs were analyzed by SDS-PAGE for expression and assayed for binding to human or mouse FcγRIIB. […] The CMS chip (GE Healthcare, Wauwatusa, Wis.) was immobilized on all flow cells with mouse anti-human IgG (Fc specific) (obtained from GE Healthcare, Wauwatusa, Wis.) according to the Biacore Human Antibody Capture Kit to ˜7000 RU. Purified full-length IgG1 variants containing mutations in Fc region (described in Example 1) were captured on the chip through immobilized mouse anti-human IgG (obtained from GE Healthcare, Wauwatusa, Wis.) followed by injection of human or mouse FcγRIIB. Human FcγRIIB was expressed in Chinese Hamster Ovary cells (Merck, Whithouse Station, N.J.) and mouse FcγRIIB was expressed in NS0 murine myeloma (R&D Systems, Minneapolis, Minn.)). Each flowcell was regenerated between each analyte injection with 3M MgCl for 40 s at 10 μl/min. Data was analyzed with Biacore T100 Evaluation Software using the 1/1 binding model for KD values, where reported. Amino acid compositions of novel variants were identified by DNA sequencing. Clones were tabulated based on response units (RU's) registered following receptor binding.
(§2) Resulting clones were fermented in 1 L bioreactor vessels to produce each of the described variants. Culture supernatants were passed over protein A coated beads to capture secreted Fc fragments. Purified Fc fragments were eluted at pH 3.0 into tubes containing 1M Tris (pH 8.0). Purified Fc fragments were analyzed by surface plasmon resonance (SPR) on Biacore for binding to human and mouse FcγRIIB as described in Example 2.

[2] = target: T2, recombinant mouse FcγRIIB expressed in …; experiment: SPR (Biacore); capture sample on chip, rmFcgRIIB (NSO) injected; reference Herceptin
Procedure: as §1, §2

[3] = target: T1, recombinant human FcγRIIB expressed in …; experiment: SPR (Biacore), 1/1 binding model; reference Herceptin

| Binder | Fold Increase in RU vs WT IgG1 [1] | Fold Increase in RU vs WT IgG1 [2] | Fold Improvement in KD vs WT IgG1 rhFcgRIIb [3] |
| --- | --- | --- | --- |
| B1 | 4.7 fold | 5 fold |  |
| B2 | 1.2 fold | 1.3 fold |  |
| B3 |  | 5.2 fold |  |
| B4 | 7 fold | 2.4 fold | 11 fold |

— patent US20160215061A1 (Merck Sharp & Dohme, published 2016)
